T1: FcγRIIb extracellular domain with C-terminal His tag (human, UniProt P31994 43-217)
T1 construct: extracellular domain; expressed in FreeStyle293 cells; analyte in the Biacore assay; also called FcgRIIb; 2b; not shown: His tag at the C terminus
T1 sequence (looked up): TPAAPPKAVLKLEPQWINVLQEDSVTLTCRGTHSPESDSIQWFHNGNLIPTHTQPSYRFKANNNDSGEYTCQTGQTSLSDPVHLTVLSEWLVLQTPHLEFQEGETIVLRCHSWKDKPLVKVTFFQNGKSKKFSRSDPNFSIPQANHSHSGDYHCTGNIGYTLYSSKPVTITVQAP

B1: GpH7-A5/GpH7-B3 variant G237_04F/GpL16-k0 (antibody, human IgG1, kappa)
heavy 1: not shown
heavy 2: not shown
light: DIVMTQSPLSLPVTPGEPASISCQASESLVHSNRNTYLHWYLQKPGQSPQLLIYKVSNRFSGVPDRFSGSGSGTDFTLKISRVEAEDVGVYYCSQNTHVPPTFGQGTKVEIERTVAAPSVFIFPPSDEQLKSGTASVVCLLNNFYPREAKVQWKVDNALQSGNSQESVTEQDSKDSTYSLSSTLTLSKADYEKHKVYACEVTHQGLSSPVTKSFNRGEC
notes: heterodimerized; mutation in the B3 H chain only; also called He Ab G237_04F
B2: GpH7-A5/GpH7-B3 variant H268_18N/GpL16-k0 (antibody, human IgG1, kappa)
heavy 1: not shown
heavy 2: not shown
light: DIVMTQSPLSLPVTPGEPASISCQASESLVHSNRNTYLHWYLQKPGQSPQLLIYKVSNRFSGVPDRFSGSGSGTDFTLKISRVEAEDVGVYYCSQNTHVPPTFGQGTKVEIERTVAAPSVFIFPPSDEQLKSGTASVVCLLNNFYPREAKVQWKVDNALQSGNSQESVTEQDSKDSTYSLSSTLTLSKADYEKHKVYACEVTHQGLSSPVTKSFNRGEC
notes: heterodimerized; mutation in the B3 H chain only; also called He Ab H268_18N
B3: GpH7-A5/GpH7-B3 variant K326_04F/GpL16-k0 (antibody, human IgG1, kappa)
heavy 1: not shown
heavy 2: not shown
light: DIVMTQSPLSLPVTPGEPASISCQASESLVHSNRNTYLHWYLQKPGQSPQLLIYKVSNRFSGVPDRFSGSGSGTDFTLKISRVEAEDVGVYYCSQNTHVPPTFGQGTKVEIERTVAAPSVFIFPPSDEQLKSGTASVVCLLNNFYPREAKVQWKVDNALQSGNSQESVTEQDSKDSTYSLSSTLTLSKADYEKHKVYACEVTHQGLSSPVTKSFNRGEC
notes: heterodimerized; mutation in the B3 H chain only; also called He Ab K326_04F
B4: GpH7-A5/GpH7-B3 variant I336_08L/GpL16-k0 (antibody, human IgG1, kappa)
heavy 1: not shown
heavy 2: not shown
light: DIVMTQSPLSLPVTPGEPASISCQASESLVHSNRNTYLHWYLQKPGQSPQLLIYKVSNRFSGVPDRFSGSGSGTDFTLKISRVEAEDVGVYYCSQNTHVPPTFGQGTKVEIERTVAAPSVFIFPPSDEQLKSGTASVVCLLNNFYPREAKVQWKVDNALQSGNSQESVTEQDSKDSTYSLSSTLTLSKADYEKHKVYACEVTHQGLSSPVTKSFNRGEC
notes: heterodimerized; mutation in the B3 H chain only; also called He Ab I336_08L
B5: GpH7-A5/GpH7-B3 variant I332_04F/GpL16-k0 (antibody, human IgG1, kappa)
heavy 1: not shown
heavy 2: not shown
light: DIVMTQSPLSLPVTPGEPASISCQASESLVHSNRNTYLHWYLQKPGQSPQLLIYKVSNRFSGVPDRFSGSGSGTDFTLKISRVEAEDVGVYYCSQNTHVPPTFGQGTKVEIERTVAAPSVFIFPPSDEQLKSGTASVVCLLNNFYPREAKVQWKVDNALQSGNSQESVTEQDSKDSTYSLSSTLTLSKADYEKHKVYACEVTHQGLSSPVTKSFNRGEC
notes: heterodimerized; mutation in the B3 H chain only; also called He Ab I332_04F
B6: GpH7-A5/GpH7-B3 variant I332_15Y/GpL16-k0 (antibody, human IgG1, kappa)
heavy 1: not shown
heavy 2: not shown
light: DIVMTQSPLSLPVTPGEPASISCQASESLVHSNRNTYLHWYLQKPGQSPQLLIYKVSNRFSGVPDRFSGSGSGTDFTLKISRVEAEDVGVYYCSQNTHVPPTFGQGTKVEIERTVAAPSVFIFPPSDEQLKSGTASVVCLLNNFYPREAKVQWKVDNALQSGNSQESVTEQDSKDSTYSLSSTLTLSKADYEKHKVYACEVTHQGLSSPVTKSFNRGEC
notes: heterodimerized; mutation in the B3 H chain only; also called He Ab I332_15Y
B7: GpH7-A5/GpH7-B3 variant I332_09D/GpL16-k0 (antibody, human IgG1, kappa)
heavy 1: not shown
heavy 2: not shown
light: DIVMTQSPLSLPVTPGEPASISCQASESLVHSNRNTYLHWYLQKPGQSPQLLIYKVSNRFSGVPDRFSGSGSGTDFTLKISRVEAEDVGVYYCSQNTHVPPTFGQGTKVEIERTVAAPSVFIFPPSDEQLKSGTASVVCLLNNFYPREAKVQWKVDNALQSGNSQESVTEQDSKDSTYSLSSTLTLSKADYEKHKVYACEVTHQGLSSPVTKSFNRGEC
notes: heterodimerized; mutation in the B3 H chain only; also called He Ab I332_09D
B8: GpH7-A5/GpH7-B3 variant H268_13S/GpL16-k0 (antibody, human IgG1, kappa)
heavy 1: not shown
heavy 2: not shown
light: DIVMTQSPLSLPVTPGEPASISCQASESLVHSNRNTYLHWYLQKPGQSPQLLIYKVSNRFSGVPDRFSGSGSGTDFTLKISRVEAEDVGVYYCSQNTHVPPTFGQGTKVEIERTVAAPSVFIFPPSDEQLKSGTASVVCLLNNFYPREAKVQWKVDNALQSGNSQESVTEQDSKDSTYSLSSTLTLSKADYEKHKVYACEVTHQGLSSPVTKSFNRGEC
notes: heterodimerized; mutation in the B3 H chain only; also called He Ab H268_13S
B9: GpH7-A5/GpH7-B3 variant H268_10E/GpL16-k0 (antibody, human IgG1, kappa)
heavy 1: not shown
heavy 2: not shown
light: DIVMTQSPLSLPVTPGEPASISCQASESLVHSNRNTYLHWYLQKPGQSPQLLIYKVSNRFSGVPDRFSGSGSGTDFTLKISRVEAEDVGVYYCSQNTHVPPTFGQGTKVEIERTVAAPSVFIFPPSDEQLKSGTASVVCLLNNFYPREAKVQWKVDNALQSGNSQESVTEQDSKDSTYSLSSTLTLSKADYEKHKVYACEVTHQGLSSPVTKSFNRGEC
notes: heterodimerized; mutation in the B3 H chain only; also called He Ab H268_10E
B10: GpH7-A5/GpH7-B3 variant I332_10E/GpL16-k0 (antibody, human IgG1, kappa)
heavy 1: not shown
heavy 2: not shown
light: DIVMTQSPLSLPVTPGEPASISCQASESLVHSNRNTYLHWYLQKPGQSPQLLIYKVSNRFSGVPDRFSGSGSGTDFTLKISRVEAEDVGVYYCSQNTHVPPTFGQGTKVEIERTVAAPSVFIFPPSDEQLKSGTASVVCLLNNFYPREAKVQWKVDNALQSGNSQESVTEQDSKDSTYSLSSTLTLSKADYEKHKVYACEVTHQGLSSPVTKSFNRGEC
notes: heterodimerized; mutation in the B3 H chain only; also called He Ab I332_10E
B11: GpH7-A5/GpH7-B3 variant H268_09D/GpL16-k0 (antibody, human IgG1, kappa)
heavy 1: not shown
heavy 2: not shown
light: DIVMTQSPLSLPVTPGEPASISCQASESLVHSNRNTYLHWYLQKPGQSPQLLIYKVSNRFSGVPDRFSGSGSGTDFTLKISRVEAEDVGVYYCSQNTHVPPTFGQGTKVEIERTVAAPSVFIFPPSDEQLKSGTASVVCLLNNFYPREAKVQWKVDNALQSGNSQESVTEQDSKDSTYSLSSTLTLSKADYEKHKVYACEVTHQGLSSPVTKSFNRGEC
notes: heterodimerized; mutation in the B3 H chain only; also called He Ab H268_09D
B12: GpH7-A5/GpH7-B3 variant H268_01G/GpL16-k0 (antibody, human IgG1, kappa)
heavy 1: not shown
heavy 2: not shown
light: DIVMTQSPLSLPVTPGEPASISCQASESLVHSNRNTYLHWYLQKPGQSPQLLIYKVSNRFSGVPDRFSGSGSGTDFTLKISRVEAEDVGVYYCSQNTHVPPTFGQGTKVEIERTVAAPSVFIFPPSDEQLKSGTASVVCLLNNFYPREAKVQWKVDNALQSGNSQESVTEQDSKDSTYSLSSTLTLSKADYEKHKVYACEVTHQGLSSPVTKSFNRGEC
notes: heterodimerized; mutation in the B3 H chain only; also called He Ab H268_01G
B13: GpH7-A5/GpH7-B3 variant K326_03V/GpL16-k0 (antibody, human IgG1, kappa)
heavy 1: not shown
heavy 2: not shown
light: DIVMTQSPLSLPVTPGEPASISCQASESLVHSNRNTYLHWYLQKPGQSPQLLIYKVSNRFSGVPDRFSGSGSGTDFTLKISRVEAEDVGVYYCSQNTHVPPTFGQGTKVEIERTVAAPSVFIFPPSDEQLKSGTASVVCLLNNFYPREAKVQWKVDNALQSGNSQESVTEQDSKDSTYSLSSTLTLSKADYEKHKVYACEVTHQGLSSPVTKSFNRGEC
notes: heterodimerized; mutation in the B3 H chain only; also called He Ab K326_03V
B14: GpH7-A5/GpH7-B3 variant I332_06M/GpL16-k0 (antibody, human IgG1, kappa)
heavy 1: not shown
heavy 2: not shown
light: DIVMTQSPLSLPVTPGEPASISCQASESLVHSNRNTYLHWYLQKPGQSPQLLIYKVSNRFSGVPDRFSGSGSGTDFTLKISRVEAEDVGVYYCSQNTHVPPTFGQGTKVEIERTVAAPSVFIFPPSDEQLKSGTASVVCLLNNFYPREAKVQWKVDNALQSGNSQESVTEQDSKDSTYSLSSTLTLSKADYEKHKVYACEVTHQGLSSPVTKSFNRGEC
notes: heterodimerized; mutation in the B3 H chain only; also called He Ab I332_06M
B15: GpH7-A5/GpH7-B3 variant G237_20W/GpL16-k0 (antibody, human IgG1, kappa)
heavy 1: not shown
heavy 2: not shown
light: DIVMTQSPLSLPVTPGEPASISCQASESLVHSNRNTYLHWYLQKPGQSPQLLIYKVSNRFSGVPDRFSGSGSGTDFTLKISRVEAEDVGVYYCSQNTHVPPTFGQGTKVEIERTVAAPSVFIFPPSDEQLKSGTASVVCLLNNFYPREAKVQWKVDNALQSGNSQESVTEQDSKDSTYSLSSTLTLSKADYEKHKVYACEVTHQGLSSPVTKSFNRGEC
notes: heterodimerized; mutation in the B3 H chain only; also called He Ab G237_20W
B16: GpH7-A5/GpH7-B3 variant I332_14T/GpL16-k0 (antibody, human IgG1, kappa)
heavy 1: not shown
heavy 2: not shown
light: DIVMTQSPLSLPVTPGEPASISCQASESLVHSNRNTYLHWYLQKPGQSPQLLIYKVSNRFSGVPDRFSGSGSGTDFTLKISRVEAEDVGVYYCSQNTHVPPTFGQGTKVEIERTVAAPSVFIFPPSDEQLKSGTASVVCLLNNFYPREAKVQWKVDNALQSGNSQESVTEQDSKDSTYSLSSTLTLSKADYEKHKVYACEVTHQGLSSPVTKSFNRGEC
notes: heterodimerized; mutation in the B3 H chain only; label printed T332_14T, read as I332_14T; also called He Ab I332_14T

The experiment addresses T1, FcγRIIb extracellular domain with …. Description: SPR (Biacore), captured antibody, FcγRIIb analyte; binding relative to GpH7-A5/GpH7-B3/GpL16-k0 = 100. In general terms: Surface plasmon resonance follows binding to a sensor surface in real time, without labels.
B1: the He/Con_2b is 149 % of control.
Regarding B2, the He/Con_2b was 156 % of control.
With B3 the figure was 155 % of control.
Regarding B4, the He/Con_2b is 107 % of control.
On to B5, for which the He/Con_2b is 104 % of control.
With B6, the He/Con_2b was 101 % of control.
For B7, the He/Con_2b is 147 % of control.
Consider B8, for which the He/Con_2b is 160 % of control.
For B9, the He/Con_2b was 230 % of control.
To B10 belongs 142 % of control; to B11, 239 % of control.
In the case of B12, the He/Con_2b was 144 % of control.
With B13 the figure was 175 % of control.
In the case of B14, the He/Con_2b is 105 % of control.
Consider B15, for which the He/Con_2b is 193 % of control.
B16: the He/Con_2b was 106 % of control.

The record behind these values is patent US20180155451A1 (published 2018).
